Laboratory results reported in US5770410A, “Chiral synthesis with modified enzymes” (Genzyme Corporation, priority 1992, dated 1998).

Legend:
Assay in all cases: Steady-state kinetics, NADH-dependent reduction of 2-oxo acids (A340)
[1] = substrate: O=C(O)C(=O)CCc1ccccc1; assay type: biochemical, Bacillus stearothermophilus; conditions: other: +FBP (5 mM), 25° C., pH 6
Method: (§1) Overnight cultures (11) were centrifuged and the packed cells were resuspended in 50 mM triethanolamine, pH 6.0. The cells were sonicated and the debris was removed by centrifugation. The protein in the supernatant was precipitated by the addition of 65% ammonium sulphate. The precipitate was spun down and resuspended in 50 mM triethanolamine, pH 6.0 and dialysed against the same buffer. After dialysis, NADH and FBP were added to the protein to final concentrations of 5 mM and 10 mM before loading onto an oxamate Sepharose column which had been pre-equilibrated with 50 mM triethanoloamine, pH 6.0, 3 mM NADH and 5 mM FBP. After washing off unbound protein with column buffer mutant LDH was eluted with 50 mM triethanolamine, pH 9.0, 0.3 M NaCl. The elutant was precipitated with 65% ammonium sulphate and then resuspended in and dialysed against 50 mM triethanolamine, pH 7.5. The protein was then loaded onto a Q-Sepharose Fast Flow column and eluted with a salt gradient. LDH eluted at a concentration of 0.25M NaCl. For the double glycine mutant enzyme, the first chromatography procedure with oxamate Sepharose was replaced by chromatography on Blue Sepharose -F3GA, otherwise the procedure was essentially the same. All proteins were judged to be greater than 98% pure from the intensity of Coomassie blue staining on an SDS Phast gel (Pharmacia). The yield of protein was usually 0.2 g/l of original broth.
(§2) Steady-state measurements were made by following the reduction in absorbance at 340 nm in the NADH/NAD^+ conversion. All assays were at 25° C. in the buffer Bis-Tris, pH 6, (20 mM), containing KC1 (50 mM) and when used fructose-1,6-bisphosphate at 5 mM. Protein concentration was determined from the absorbance at 280 nm using the value of 0.91 for 1 mg/ml protein in 1 cm path and an Mr of 33,000.
(§3) The specific substrates used in the evaluations are shown in the left column of Table 4. In Table 4, "235/6GG" denotes the mutant enzyme formed by substituting GlyGly for AlaAla at the 235-236 positions of the enzyme (Wilks et al., Biochemistry 1990, 29, 8587-8591), and "WTrs" denotes a mutant derived from the wild-type strain as shown in FIG. 1 of Wilks et al., Biochemistry 1992, 31, 7802-7806.

[2] = substrate: CC(=O)C(=O)O; assay type: biochemical, Bacillus stearothermophilus; conditions: other: -FBP, 25° C., pH 6
Method: as §1, §2, §3

[3] = substrate: O=C(O)C(=O)Cc1ccccc1; assay type: biochemical, Bacillus stearothermophilus; conditions: other: +FBP (5 mM), 25° C., pH 6
Method: as §1, §2, §3

[4] = substrate: O=C(O)C(=O)CCc1ccccc1; assay type: biochemical; conditions: 25° C., pH 6
Text: (§4) Mutants were identified by making mini-preps and restricting with SacII and XbaI. Mutant mini-preps were restricted with EcoRI and XhoI and the small fragment was subcloned into PKK223-3 containing Ala235Gly, Ala236Gly mutant LDH from which the small EcoRI/XhoI fragment had been removed (Wilks et al. Biochemistry, 1990, 29, 8587). The resulting plasmid (pLDHrs) was transformed into competent E. coli TG2 cells.
as §1, §2, §3

[5] = substrate: CC(C)CC(=O)C(=O)O; assay type: biochemical; conditions: other: -FBP, 25° C., pH 6
Text: as §4, §1, §2, §3

[6] = substrate: CC(=O)C(=O)O; assay type: biochemical; conditions: other: -FBP, 25° C., pH 6
Text: as §4, §1, §2, §3

[7] = substrate: CCCCC(=O)C(=O)O; assay type: biochemical; conditions: other: -FBP, 25° C., pH 6
Text: as §4, §1, §2, §3

[8] = substrate: O=C(O)C(=O)Cc1ccccc1; assay type: biochemical; conditions: 25° C., pH 6
Text: as §4, §1, §2, §3

Protein | Km [1] | kcat [1] | kcat/Km [1] | Km [2] | kcat [2] | kcat/Km [2] | Km [3] | kcat [3] | kcat/Km [3] | Km ([4]; other: +FBP (5 mM)) | kcat ([4]; other: +FBP (5 mM)) | kcat/Km ([4]; other: +FBP (5 mM)) | Km ([4]; other: -FBP) | Km [5] | Km [6] | Km [7] | Km ([8]; other: +FBP (5 mM)) | kcat ([8]; other: +FBP (5 mM)) | kcat/Km ([8]; other: +FBP (5 mM)) | Km ([8]; other: -FBP)
Bacillus stearothermophilus lactate dehydrogenase, wild type, SEQ ID NO: 3 (Geobacillus stearothermophilus) (protein, made in house; host or cells: E. coli) MKNNGGARVVVIGAGFVGASYVFALMNQGIADEIVLIDANESKAIGDAMDFNHGKVFAPKPVDIWHGDYDDCRDADLVVICAGANQKPGETRLDLVDKNIAIFRSIVESVMASGFQGLFLVATNPVDILTYATWKFSGLPHERVIGSGTILDTARFRFLLGEYFSVAPQNVHAYIIGEHGDTELPVWSQAYIGVMPIRKLVESKGEEAQKDLERIFVNVRDAAYQIIEKKGATYYGIAMGLARVTRAILHNENAILTVSAYLDGLYGERDVYIGVPAVINRNGIREVIEIELNDDEKNRFHHSAATLKSVLARAFTR | 0.6 mM | 6 s⁻¹ | 10000 M⁻¹ s⁻¹ | 2 mM | 250 s⁻¹ | 50000 M⁻¹ s⁻¹ | 1.8 mM | 32.7 s⁻¹ | 18000 M⁻¹ s⁻¹ | – | – | – | – | – | – | – | – | – | – | –
Bacillus stearothermophilus lactate dehydrogenase mutant 235/6GG (Ala235Gly, Ala236Gly) (Geobacillus stearothermophilus; A222G/A223G) (protein, made in house; host or cells: E. coli) MKNNGGARVVVIGAGFVGASYVFALMNQGIADEIVLIDANESKAIGDAMDFNHGKVFAPKPVDIWHGDYDDCRDADLVVICAGANQKPGETRLDLVDKNIAIFRSIVESVMASGFQGLFLVATNPVDILTYATWKFSGLPHERVIGSGTILDTARFRFLLGEYFSVAPQNVHAYIIGEHGDTELPVWSQAYIGVMPIRKLVESKGEEAQKDLERIFVNVRDGGYQIIEKKGATYYGIAMGLARVTRAILHNENAILTVSAYLDGLYGERDVYIGVPAVINRNGIREVIEIELNDDEKNRFHHSAATLKSVLARAFTR | 13 mM | 7 s⁻¹ | 538 M⁻¹ s⁻¹ | – | – | – | 4.5 mM | 53.4 s⁻¹ | 12000 M⁻¹ s⁻¹ | – | – | – | – | – | – | – | – | – | – | –
Bacillus stearothermophilus lactate dehydrogenase mutant WTrs (restriction-site construct pLDHrs, Cys97Thr, Ala235Gly, Ala236Gly; loop SEQ ID No 7) … (protein, made in house; host or cells: E. coli TG2) MKNNGGARVVVIGAGFVGASYVFALMNQGIADEIVLIDANESKAIGDAMDFNHGKVFAPKPVDIWHGDYDDCRDADLVVITAGANQKPGETRLDLVDKNIAIFRSIVESVMASGFQGLFLVATNPVDILTYATWKFSGLPHERVIGSGTILDTARFRFLLGEYFSVAPQNVHAYIIGEHGDTELPVWSQAYIGVMPIRKLVESKGEEAQKDLERIFVNVRDGGYQIIEKKGATYYGIAMGLARVTRAILHNENAILTVSAYLDGLYGERDVYIGVPAVINRNGIREVIEIELNDDEKNRFHHSAATLKSVLARAFTR | – | – | – | – | – | – | – | – | – | 4 mM | 6 s⁻¹ | 1500 M⁻¹ s⁻¹ | 12 mM | 28 mM | 100 mM | 30 mM | 6 mM | 58 s⁻¹ | 9600 M⁻¹ s⁻¹ | 21 mM
